According to publication PMC3017776, “Coordinated transcriptional regulation of two key genes in the lignin branch pathway - CAD and CCR - is mediated through MYB- binding sites”:
Changes are numbered by the printed parent chain.

B1: EgCAD2 [-203/-129] mutated MYBb (dsDNA)
DNA 1: TGGGAATGGCTAAAAAGCAAGTCTTGACCCTTAACCCACCCCACTGGTTCACCTACCGCACCTCTGAGATCTTATTGCTTGCTGAG
DNA 2: CTCAGCAAGCAATAAGATCTCAGAGGTGCGGTAGGTGAACCAGTGGGGTGGGTTAAGGGTCAAGACTTGCTTTTTAGCCATTCCCA
B2: EgCCR [-119/-70] mutated MYB (dsDNA)
DNA 1: CCTTATAGGGGAGCGGGTCATTTCATGCGGTTCTAGAGTCTTGGTAAACATTGTC
DNA 2: GACAATGTTTACCAAGACTCTAGAACCGCATGAAATGACCCGCTCCCCTATAAGG
B3: EgCAD2 [-203/-129] mutated MYBa (dsDNA)
DNA 1: TGGGAATGGCTAAAAAGCAAGTCTTGACCCTTAACCCACCCCACTGGTTCAGTCGACGCACCTCTGGTTAGGTATTGCTTGCTGAG
DNA 2: CTCAGCAAGCAATACCTAACCAGAGGTGCGTCGACTGAACCAGTGGGGTGGGTTAAGGGTCAAGACTTGCTTTTTAGCCATTCCCA
B4: EgCAD2 [-203/-129] mutated MYBa + MYBb (dsDNA)
DNA 1: B1 DNA 1 with C52G, C53T, T54C, A55G, C56A
DNA 2: B1 DNA 2 with G31T, T32C, A33G, G34A, G35C

Biological target: EgMYB2 (R2R3 MYB factor) (UniProt Q70KC5 1-321)
Assay: EMSA; EMSA: 25 mM Tris-HCl pH 8, 250 mM NaCl, 10% glycerol, 7 mM beta-mercaptoethanol, 2 ug poly(dIdC), 25 ul, 30 min, room temperature; 0.125 ug EgMYB2; 4.8% PAGE in 0.5x TBE, 2.5% glycerol
Settings: protein: recombinant; tags: GST (N-terminal, pGEX-5X-1); label: 32P; blunt

Sequence of EgMYB2 (R2R3 MYB factor) (Q70KC5 entry or part of it): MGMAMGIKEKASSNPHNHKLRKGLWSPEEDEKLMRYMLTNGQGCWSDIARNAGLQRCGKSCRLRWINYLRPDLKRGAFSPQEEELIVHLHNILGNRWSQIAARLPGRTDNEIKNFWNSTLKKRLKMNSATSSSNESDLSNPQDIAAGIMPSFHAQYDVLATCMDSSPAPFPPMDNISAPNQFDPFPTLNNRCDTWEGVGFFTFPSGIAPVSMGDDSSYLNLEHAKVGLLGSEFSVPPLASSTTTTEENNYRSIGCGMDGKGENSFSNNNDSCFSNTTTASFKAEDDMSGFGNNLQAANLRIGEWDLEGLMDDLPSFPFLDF

Binder	binding result
B1	no binding
B2	no binding
B3	no binding
B4	no binding
